Source: patent publication US8932825B2

Target: Kringle 3 domain of human plasminogen (K3) with a C-terminal hexa-histidine tag, made in P. pastoris (human) (UniProt P00747)

increase in mass by MALDI-TOF mass spectrometry of the protein and of its released N-glycans: 325 Da
Substance: beta 1,4-galactosyltransferase from bovine milk (from UniProt P08037) (enzyme)
